B2: SspB (natural protein, Escherichia coli, UniProt P0AFZ3 1-165, looked up)
chain: MDLSQLTPRRPYLLRAFYEWLLDNQLTPHLVVDVTLPGVQVPMEYARDGQIVLNIAPRAVGNLELANDEVRFNARFGGIPRQVSVPLAAVLAIYARENGAGTMFEPEAAYDEDTSIMNDEEASADNETVMSVIDGDKPDHDDDTHPDDEPPQPPRGGRPALRVVK

The target in test [1] is T1, SspB (Escherichia coli, UniProt P0AFZ3 1-165).
T1 chain: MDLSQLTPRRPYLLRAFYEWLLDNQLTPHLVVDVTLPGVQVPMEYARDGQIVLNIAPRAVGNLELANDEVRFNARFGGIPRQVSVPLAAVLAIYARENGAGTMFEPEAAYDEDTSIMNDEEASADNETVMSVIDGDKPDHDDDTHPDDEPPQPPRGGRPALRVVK
In words: MST.

The target of test [2] is B2. Description: MST; 50 nM eGFP-degron (eGFP fluorescence), SspB titrated 3.72 nM to 122 μM; 25 mM Hepes pH 7.6, 200 mM KCl, 5 mM MgCl2, 10% glycerol, 0.05% Tween 20; 15 min at RT; measured at 20 °C, Monolith NT.115. Conditions: both partners purified.
The target of a further test is ClpX (Escherichia coli, UniProt P0A6H1 1-424). In words: cell-based or functional assay.
ClpX, sequence (P0A6H1 whole entry): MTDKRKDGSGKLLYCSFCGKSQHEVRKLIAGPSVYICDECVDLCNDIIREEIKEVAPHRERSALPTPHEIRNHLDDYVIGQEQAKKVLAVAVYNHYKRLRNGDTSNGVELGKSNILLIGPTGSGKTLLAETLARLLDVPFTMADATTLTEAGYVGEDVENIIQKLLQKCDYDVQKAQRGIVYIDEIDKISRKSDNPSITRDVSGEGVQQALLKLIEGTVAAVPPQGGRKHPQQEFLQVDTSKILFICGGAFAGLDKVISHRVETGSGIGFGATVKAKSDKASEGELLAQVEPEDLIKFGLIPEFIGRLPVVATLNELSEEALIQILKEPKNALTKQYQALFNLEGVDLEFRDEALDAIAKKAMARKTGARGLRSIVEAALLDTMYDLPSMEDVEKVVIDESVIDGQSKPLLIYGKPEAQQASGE
Test [3] addresses T1, SspB. Description: MST.

Results on eight molecules are retold here after PMC8512704, “A Uniform Benchmark for Testing SsrA-Derived Degrons in the Escherichia coli ClpXP Degradation Pathway” (Molecules, 2021).

No end group written: not given here.

B1: eGFP-AANDENYSENYADAS (peptide)
chain: eGFP-AANDENYSENYADAS
notes: ssrA tag variant with the SENY linker and the C-terminal ALAA replaced by ADAS, appended to the C-terminus of eGFP; Degron fused to the C-terminus of His-TEV-eGFP; source: E. coli ΔclpP Keio strain (JW0427) (earlier Top10), pBAD, purified (HisTrap and Superdex200 in tandem); not shown: His-TEV, N-terminal, kept; eGFP, N-terminal, kept
The term Kd denotes the equilibrium constant for the complex coming apart. B1 had a Ka with SspB [1] of 3.37e+06 M⁻¹. In addition, the Kd in the test with SspB [2] was determined as 300 nM.

For the molecule B2, the “ClpX ATPase activity (NADH-coupled assay, 0.08 µM ClpX6, 30 °C) with increasing SspB2 (0-27.4 μM): increase of reaction velocity” value in the test with ClpX was around 2 fold.

B3: eGFP-AANDENYADAS (peptide)
chain: eGFP-AANDENYADAS
notes: ssrA tag variant with the C-terminal ALAA replaced by ADAS, appended to the C-terminus of eGFP; Degron fused to the C-terminus of His-TEV-eGFP; source: E. coli ΔclpP Keio strain (JW0427) (earlier Top10), pBAD, purified (HisTrap and Superdex200 in tandem); not shown: His-TEV, N-terminal, kept; eGFP, N-terminal, kept
As for B3, the Ka with SspB [1] came out at 3.02e+06 M⁻¹. The molecule also registered a Kd with SspB [2] of 330 nM.

B4: eGFP-AANDENYAANDENY (peptide)
chain: eGFP-AANDENYAANDENY
notes: two repeats of the AANDENY motif of the ssrA tag, appended to the C-terminus of eGFP; Degron fused to the C-terminus of His-TEV-eGFP; source: E. coli ΔclpP Keio strain (JW0427) (earlier Top10), pBAD, purified (HisTrap and Superdex200 in tandem); not shown: His-TEV, N-terminal, kept; eGFP, N-terminal, kept
Turning to B4, the Kd with SspB [3] was determined as 120 nM. In the test with SspB [1], this molecule registered a Ka of 9.56e+06 M⁻¹. Further, in the test with SspB [2], the binding result is “binds”.

B5: eGFP-AANDENYALAA (peptide)
chain: eGFP-AANDENYALAA
notes: ssrA tag of Escherichia coli, the 11 amino acids added by trans-translation (tmRNA), appended to the C-terminus of eGFP; Degron fused to the C-terminus of His-TEV-eGFP; also called eGFP-ssrA; eGFP-SsrA; source: E. coli ΔclpP Keio strain (JW0427) (earlier Top10), pBAD, purified (HisTrap and Superdex200 in tandem); not shown: His-TEV, N-terminal, kept; eGFP, N-terminal, kept
On to B5, for which the Ka with SspB [1] came out at 1.32e+07 M⁻¹. Also, the Kd with SspB [2] was found to be 80 nM.

B6: eGFP-AANDENYSENYALAA (peptide)
chain: eGFP-AANDENYSENYALAA
notes: ssrA tag variant with the SENY linker between AANDENY and ALAA, appended to the C-terminus of eGFP; Degron fused to the C-terminus of His-TEV-eGFP; source: E. coli ΔclpP Keio strain (JW0427) (earlier Top10), pBAD, purified (HisTrap and Superdex200 in tandem); not shown: His-TEV, N-terminal, kept; eGFP, N-terminal, kept
In turn, B6 yielded a Kd with SspB [3] of 140 nM. Besides, in the test with SspB [1], the Ka amounted to 7.8e+06 M⁻¹. Besides, the binding result with SspB [2] is recorded as “binds”.

B7: eGFP-AANDENY (peptide)
chain: eGFP-AANDENY
notes: AANDENY motif of the E. coli ssrA tag, appended to the C-terminus of eGFP; Degron fused to the C-terminus of His-TEV-eGFP; source: E. coli ΔclpP Keio strain (JW0427) (earlier Top10), pBAD, purified (HisTrap and Superdex200 in tandem); not shown: His-TEV, N-terminal, kept; eGFP, N-terminal, kept
Consider B7, for which binding with SspB [3] was put at a Kd of 110 nM. Further, the Ka with SspB [1] is 1.08e+07 M⁻¹. The binding result with SspB [2] is given as “binds”.

B8: eGFP-AANDENYSENY (peptide)
chain: eGFP-AANDENYSENY
notes: AANDENY motif of the ssrA tag followed by the SENY linker, appended to the C-terminus of eGFP; Degron fused to the C-terminus of His-TEV-eGFP; source: E. coli ΔclpP Keio strain (JW0427) (earlier Top10), pBAD, purified (HisTrap and Superdex200 in tandem); not shown: His-TEV, N-terminal, kept; eGFP, N-terminal, kept
B8 gave a Ka with SspB [1] of 9.78e+06 M⁻¹. In addition, the Kd with SspB [2] worked out at 100 nM.
